Experimental data taken from patent JPH11127861A (dated 1999).

biological target: HCV serine protease Cpro-2 (NS3 protein, p70) (C型肝炎ウイルス (株名 HCV-J)); assay: cell-based or functional assay

Binder | IC50, HCVプロテアーゼ阻害活性 (組換え基質MBP-NS5A/5B-ADK) [µM]
GYSFTDYVLIWVKQS [CDR-H1 (15 amino acid peptide containing CDR1 of the mAb 8D4 H chain)] | 20.8
TDYVLIW [CDR-H1-7 (7 amino acid peptide: the 5 residues of H chain CDR1 with one residue left at each end)] | 165
NSNPYYGRTSYNLKFKG [CDR-H2 (17 amino acid peptide, CDR2 of the mAb 8D4 H chain)] | 229
